Square brackets hold non-standard residues; d marks the D form. Ends that are not written are not given here. * marks the point of attachment. Palmitoyl = CCCCCCCCCCCCCCCC(=O)*; Myristoyl = CCCCCCCCCCCCCC(=O)*; Nle = CCCC[C@H](N)C(=O)O
T1: human PrRP receptor GPR10 (human, UniProt P49683 1-370)
T1 construct: whole, on cells; also called GPR10 human receptor transfected in CHO cells; human GPR10 receptor
T1 sequence (looked up): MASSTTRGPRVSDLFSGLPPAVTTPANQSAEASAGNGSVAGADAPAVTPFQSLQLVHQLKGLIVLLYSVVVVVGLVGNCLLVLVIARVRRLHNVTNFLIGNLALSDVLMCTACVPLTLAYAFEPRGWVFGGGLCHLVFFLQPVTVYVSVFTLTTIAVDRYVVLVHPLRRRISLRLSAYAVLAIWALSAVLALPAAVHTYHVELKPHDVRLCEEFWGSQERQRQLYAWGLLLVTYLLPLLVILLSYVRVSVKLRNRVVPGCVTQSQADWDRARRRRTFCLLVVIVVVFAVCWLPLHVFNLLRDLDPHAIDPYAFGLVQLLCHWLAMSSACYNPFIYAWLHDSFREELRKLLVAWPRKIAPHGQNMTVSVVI

T2: rat PrRP receptor in RC-4B/C cells (rat, UniProt Q64121 1-370)
T2 construct: whole, on cells; endogenous receptor of RC-4B/C cells (ATCC); also called rat receptor; GPR10 receptor expressed in rat hypophyseal cells
T2 sequence (looked up): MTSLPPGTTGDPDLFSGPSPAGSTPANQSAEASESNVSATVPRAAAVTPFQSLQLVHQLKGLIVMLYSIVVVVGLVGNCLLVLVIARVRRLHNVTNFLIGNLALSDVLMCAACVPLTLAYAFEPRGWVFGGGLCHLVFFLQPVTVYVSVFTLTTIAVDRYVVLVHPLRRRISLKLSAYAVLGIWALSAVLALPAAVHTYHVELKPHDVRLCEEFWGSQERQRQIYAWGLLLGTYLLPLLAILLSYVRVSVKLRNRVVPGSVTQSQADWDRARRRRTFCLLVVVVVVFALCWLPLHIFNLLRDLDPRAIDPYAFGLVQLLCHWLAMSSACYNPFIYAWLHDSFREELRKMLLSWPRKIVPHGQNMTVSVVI


Tests used:
[1] = target: T1, human PrRP receptor GPR10; test: competition with 125I-human PrRP31, CHO cells with human GPR10
[2] = target: T2, rat PrRP receptor in RC-4B/C cells; test: competition with 125I-rat PrRP31, RC-4B/C cells
In short: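 Incubation 60 min at room temperature; cells solubilized in 0.1 mol/l NaOH and bound radioactivity γ-counted. Run in duplicate, repeated at least three times.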

Row | % of PrRP31 [1] | Ki [1] | % of PrRP31 [2] | Ki [2] | Binder
1 | 66% | 5.92 nM | 189% | 2.61 nM | QHSMETRTPDINPAWYTGRGIRPVGRF-NH2 (shortened PrRP31 analog; also called 37 short) [analog no. 37]
2 | 90% | – | 519% | 0.95 nM | Palmitoyl-SRTHRHSMEIRTPDINPAWYASRGIRPVGRF-NH2 (also called analog no; 43; compound 43) [palm-PrRP31 (analog 43)]
3 | 113% | 3.44 nM | 168% | 2.94 nM | [Nle]ETRTPDINPAWYTGRGIRPVGRF-NH2 (N-terminus assumed; SMILES CCCC[C@H](N)C(=O)N[C@@H](CCC(=O)O)C(=O)N[C@H](C(=O)N[C@@H](CCCNC(=N)N)C(=O)N[C@H](C(=O)N1CCC[C@H]1C(=O)N[C@@H](CC(=O)O)C(=O)N[C@H](C(=O)N[C@@H](CC(N)=O)C(=O)N1CCC[C@H]1C(=O)N[C@@H](C)C(=O)N[C@@H](Cc1c[nH]c2ccccc12)C(=O)N[C@@H](Cc1ccc(O)cc1)C(=O)N[C@H](C(=O)NCC(=O)N[C@@H](CCCNC(=N)N)C(=O)NCC(=O)N[C@H](C(=O)N[C@@H](CCCNC(=N)N)C(=O)N1CCC[C@H]1C(=O)N[C@H](C(=O)NCC(=O)N[C@@H](CCCNC(=N)N)C(=O)N[C@@H](Cc1ccccc1)C(N)=O)C(C)C)[C@@H](C)CC)[C@@H](C)O)[C@@H](C)CC)[C@@H](C)O)[C@@H](C)O, shortened PrRP31 analog; also called 35 short) [analog no. 35]
4 | 71% | 5.48 nM | 1100% | 0.45 nM | Myristoyl-[Nle]ETRTPDINPAWYTGRGIRPVGRF-NH2 (SMILES CCCCCCCCCCCCCC(=O)N[C@@H](CCCC)C(=O)N[C@@H](CCC(=O)O)C(=O)N[C@H](C(=O)N[C@@H](CCCNC(=N)N)C(=O)N[C@H](C(=O)N1CCC[C@H]1C(=O)N[C@@H](CC(=O)O)C(=O)N[C@H](C(=O)N[C@@H](CC(N)=O)C(=O)N1CCC[C@H]1C(=O)N[C@@H](C)C(=O)N[C@@H](Cc1c[nH]c2ccccc12)C(=O)N[C@@H](Cc1ccc(O)cc1)C(=O)N[C@H](C(=O)NCC(=O)N[C@@H](CCCNC(=N)N)C(=O)NCC(=O)N[C@H](C(=O)N[C@@H](CCCNC(=N)N)C(=O)N1CCC[C@H]1C(=O)N[C@H](C(=O)NCC(=O)N[C@@H](CCCNC(=N)N)C(=O)N[C@@H](Cc1ccccc1)C(N)=O)C(C)C)[C@@H](C)CC)[C@@H](C)O)[C@@H](C)CC)[C@@H](C)O)[C@@H](C)O, lipidized shortened PrRP31 analog; also called 36 short) [analog no. 36]
5 | 56% | 6.93 nM | 1330% | 0.37 nM | Myristoyl-QHSMETRTPDINPAWYTGRGIRPVGRF-NH2 (SMILES CCCCCCCCCCCCCC(=O)N[C@@H](CCC(N)=O)C(=O)N[C@@H](Cc1c[nH]cn1)C(=O)N[C@@H](CO)C(=O)N[C@@H](CCSC)C(=O)N[C@@H](CCC(=O)O)C(=O)N[C@H](C(=O)N[C@@H](CCCNC(=N)N)C(=O)N[C@H](C(=O)N1CCC[C@H]1C(=O)N[C@@H](CC(=O)O)C(=O)N[C@H](C(=O)N[C@@H](CC(N)=O)C(=O)N1CCC[C@H]1C(=O)N[C@@H](C)C(=O)N[C@@H](Cc1c[nH]c2ccccc12)C(=O)N[C@@H](Cc1ccc(O)cc1)C(=O)N[C@H](C(=O)NCC(=O)N[C@@H](CCCNC(=N)N)C(=O)NCC(=O)N[C@H](C(=O)N[C@@H](CCCNC(=N)N)C(=O)N1CCC[C@H]1C(=O)N[C@H](C(=O)NCC(=O)N[C@@H](CCCNC(=N)N)C(=O)N[C@@H](Cc1ccccc1)C(N)=O)C(C)C)[C@@H](C)CC)[C@@H](C)O)[C@@H](C)CC)[C@@H](C)O)[C@@H](C)O, lipidized shortened PrRP31 analog; also called 38 short) [analog no. 38]

— patent US20150196651A1 (published 2015)
